The text below walks through data of patent US20180193423A1 (LONGEVITY BIOTECH, published 2018).

T1: VPAC2 receptor (UniProt P41587 24-438, limits assumed)
T1 sequence (looked up): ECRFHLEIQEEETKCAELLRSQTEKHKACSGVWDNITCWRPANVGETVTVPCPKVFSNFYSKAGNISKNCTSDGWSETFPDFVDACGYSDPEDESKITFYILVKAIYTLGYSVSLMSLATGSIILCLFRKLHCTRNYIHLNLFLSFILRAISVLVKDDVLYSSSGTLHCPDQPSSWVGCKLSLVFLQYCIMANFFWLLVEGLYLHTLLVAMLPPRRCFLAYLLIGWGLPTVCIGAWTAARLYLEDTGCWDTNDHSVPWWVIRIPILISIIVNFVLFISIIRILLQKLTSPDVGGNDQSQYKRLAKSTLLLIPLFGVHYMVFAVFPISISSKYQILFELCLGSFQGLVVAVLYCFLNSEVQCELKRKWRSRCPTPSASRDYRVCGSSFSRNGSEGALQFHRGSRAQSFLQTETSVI

T2: VPAC1 receptor (UniProt P32241 31-457, limits assumed)
T2 sequence (looked up): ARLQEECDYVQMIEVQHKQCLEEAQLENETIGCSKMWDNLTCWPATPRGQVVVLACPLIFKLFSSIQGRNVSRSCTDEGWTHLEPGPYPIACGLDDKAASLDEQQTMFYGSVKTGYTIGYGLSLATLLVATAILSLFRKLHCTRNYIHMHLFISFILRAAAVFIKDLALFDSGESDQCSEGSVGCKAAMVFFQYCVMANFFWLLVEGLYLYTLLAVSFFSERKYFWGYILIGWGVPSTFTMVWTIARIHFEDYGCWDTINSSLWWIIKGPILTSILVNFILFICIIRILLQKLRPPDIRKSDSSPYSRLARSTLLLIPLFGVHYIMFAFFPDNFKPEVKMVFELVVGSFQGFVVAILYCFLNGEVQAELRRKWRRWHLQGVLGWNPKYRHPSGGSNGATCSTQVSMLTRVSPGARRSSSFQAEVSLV

Primed or numbered codes have the meaning given here. Where no end group is shown, it is not given here. [ ]: non-standard residue; d: D form. APC″ = 3-aminopyrrolidine-4-carboxylic acid (cyclic β-amino acid); ACPC″ = 2-aminocyclopentanecarboxylic acid (x in the sequences); APC = 3-aminopyrrolidine-4-carboxylic acid; ACPC = 2-aminocyclopentanecarboxylic acid; β3hT = C[C@@H](O)[C@H](N)CC(=O)O; β3hN = NC(=O)C[C@H](N)CC(=O)O; β3hL = CC(C)C[C@H](N)CC(=O)O; β3hK = NCCCC[C@H](N)CC(=O)O; β3hV = CC(C)[C@H](N)CC(=O)O; β3hD = NC(CC(=O)O)CC(=O)O; β3hS = N[C@@H](CO)CC(=O)O; Aib = CC(C)(N)C(=O)O; βAla = NCCC(=O)O Bounds are passed on as bounds.

For the first assay, the target named is T1, VPAC2 receptor. As to the kind of experiment: cell-based or functional assay.
On to Ac-H[Aib]DAVFTENYTKLRKQLAA[APC]KY[ACPC]NDL[β3hK]KG[βAla]T (not fully specified (C-terminus); printed as Ac-HBDAVFTENYTKLRKQLAAzKYxNDLkKGgT) [LBT-V204], for which the “EC50 vpac2 (Molar), cell-based cAMP assay” value (“EC50 vpac2 (Molar)” below) was 0.529 nM.

For the molecule Ac-HSDAVFTENYTKLRKQ[ACPC″]AAK[APC″]YL[ACPC″]DLK[β3hK]GGT (not fully specified (C-terminus); printed as Ac-HSDAVFTENYTKLRKQxAAKzYLxDLKkGGT) [LBT-V220], the “EC50 vpac2 (Molar)” value came out at 0.422 nM.

As for Ac-HSDAVFTDNYTRLRKQ[ACPC″]AAK[APC″]YL[ACPC″]SIK[β3hN]KRY (not fully specified (C-terminus); printed as Ac-HSDAVFTDNYTRLRKQxAAKzYLxSIKnKRY) [LBT-V221], the “EC50 vpac2 (Molar)” value is 0.0784 nM.

Take Ac-HSDAVFTENYTKLRKQ[ACPC]AA[APC]KYL[ACPC]DL[β3hK]KGGT (not fully specified (C-terminus); printed as Ac-HSDAVFTENYTKLRKQxAAzKYLxDLkKGGT) [LBT-V203]: the “EC50 vpac2 (Molar)” value is 0.18 nM.

Another assay concerns the target T2, VPAC1 receptor. The assay is described as follows: cell-based or functional assay.
Regarding Ac-H[Aib]DAVFTENYTKLRKQLAA[APC]KY[ACPC]NDL[β3hK]KG[βAla]T (not fully specified (C-terminus); printed as Ac-HBDAVFTENYTKLRKQLAAzKYxNDLkKGgT) [LBT-V204], the “EC 50 vpac1 (Molar), cell-based cAMP assay” value (“EC 50 vpac1 (Molar)” below) is 0.516 µM.

As to Ac-HSDAVFTENYTKLRKQ[ACPC″]AAK[APC″]YL[ACPC″]DLK[β3hK]GGT (not fully specified (C-terminus); printed as Ac-HSDAVFTENYTKLRKQxAAKzYLxDLKkGGT) [LBT-V220], the “EC 50 vpac1 (Molar)” value turned out to be 0.00951 µM.

Regarding Ac-HSDAVFTDNYTRLRKQ[ACPC″]AAK[APC″]YL[ACPC″]SIK[β3hN]KRY (not fully specified (C-terminus); printed as Ac-HSDAVFTDNYTRLRKQxAAKzYLxSIKnKRY) [LBT-V221], the “EC 50 vpac1 (Molar)” value came to 0.000195 µM.

For the molecule Ac-HSDAVFTENYTKLRKQ[ACPC]AA[APC]KYL[ACPC]DL[β3hK]KGGT (not fully specified (C-terminus); printed as Ac-HSDAVFTENYTKLRKQxAAzKYLxDLkKGGT) [LBT-V203], the “EC 50 vpac1 (Molar)” value came out at 0.218 µM.

The target of a further assay is T1, VPAC2 receptor. As to the kind of experiment: cell-based or functional assay. The source holds these as a separate data set.
Take H[dF]DA[ACPC]FTDNY[β3hT]RLR[β3hK]QLA[β3hV]KKY[β3hL]NAI[β3hL]N (not fully specified (C-terminus); printed as HfDAxFTDNYtRLRkQLAvKKYlNAIlN) [LBT-V127]: the “EC50 vpac2 (Molar)” value was greater than 1 µM.

On to H[dF][β3hD]AVF[β3hT]DNY[β3hT]RLR[β3hK]QLA[β3hV]KKY[β3hL]NAI[β3hL]N (not fully specified (C-terminus); printed as HfdAVFtDNYtRLRkQLAvKKYlNAIlN) [LBT-V130], for which the “EC50 vpac2 (Molar)” value was 0.609 µM.

As to H[dF]DA[β3hV]FTD[β3hN]Y[β3hT]RLR[β3hK]QLA[β3hV]KKY[β3hL]NAI[β3hL]N (not fully specified (C-terminus); printed as HfDAvFTDnYtRLRkQLAvKKYlNAIlN) [LBT-V129], the “EC50 vpac2 (Molar)” value stood at 0.989 µM.

Consider HS[β3hD]AVF[β3hT]DNY[β3hT]RLR[β3hK]QLA[β3hV]KKY[β3hL]NAI[β3hL]N (not fully specified (C-terminus); printed as HSdAVFtDNYtRLRkQLAvKKYlNAIlN) [LBT-V107], for which the “EC50 vpac2 (Molar)” value was greater than 1 µM.

H[ACPC]DA[β3hV]FTDNY[β3hT]RLR[β3hK]QLA[β3hV]KKY[β3hL]NAI[β3hL]N (not fully specified (C-terminus); printed as HxDAvFTDNYtRLRkQLAvKKYlNAIlN) [LBT-V104]: the “EC50 vpac2 (Molar)” value turned out to be 0.262 µM.

In the case of H[ACPC]DAVFTDNY[β3hT]RLR[β3hK]QLA[β3hV]KKY[β3hL]NAI[β3hL]N (not fully specified (C-terminus); printed as HxDAVFTDNYtRLRkQLAvKKYlNAIlN) [LBT-V102], the “EC50 vpac2 (Molar)” value turned out to be 4.9 µM.

Regarding H[β3hS]DA[β3hV]FTD[β3hN]Y[β3hT]RLR[β3hK]QLA[β3hV]KKY[β3hL]NAI[β3hL]N (not fully specified (C-terminus); printed as HsDAvFTDnYtRLRkQLAvKKYlNAIlN) [LBT-V106], the “EC50 vpac2 (Molar)” value is 0.503 µM.

Turning to H[ACPC]DA[ACPC]FTDNY[β3hT]RLR[β3hK]QLA[β3hV]KKY[β3hL]NAI[β3hL]N (not fully specified (C-terminus); printed as HxDAxFTDNYtRLRkQLAvKKYlNAIlN) [LBT-V103], the “EC50 vpac2 (Molar)” value came to 0.0796 µM.

On to H[dF]DAVFTDNY[β3hT]RLR[β3hK]QLA[β3hV]KKY[β3hL]NAI[β3hL]N (not fully specified (C-terminus); printed as HfDAVFTDNYtRLRkQLAvKKYlNAIlN) [LBT-V126], for which the “EC50 vpac2 (Molar)” value amounted to 0.344 µM.

With H[β3hS]DA[β3hV]FTDNY[β3hT]RLR[β3hK]QLA[β3hV]KKY[β3hL]NAI[β3hL]N (not fully specified (C-terminus); printed as HsDAvFTDNYtRLRkQLAvKKYlNAIlN) [LBT-V105], the “EC50 vpac2 (Molar)” value was 0.716 µM.

With H[dF]DA[β3hV]FTDNY[β3hT]RLR[β3hK]QLA[β3hV]KKY[β3hL]NAI[β3hL]N (not fully specified (C-terminus); printed as HfDAvFTDNYtRLRkQLAvKKYlNAIlN) [LBT-V128], the “EC50 vpac2 (Molar)” value came to 0.0503 µM.

Take HSDAVFTDNY[β3hT]RLR[β3hK]QLA[β3hV]KKY[β3hL]NAI[β3hL]N (not fully specified (C-terminus); printed as HSDAVFTDNYtRLRkQLAvKKYlNAIlN) [LBT-V101]: the “EC50 vpac2 (Molar)” value turned out to be 8260 µM.

Another assay addresses T2, VPAC1 receptor. The assay is described as follows: cell-based or functional assay. This is another data set of the same source.
As to H[dF]DA[ACPC]FTDNY[β3hT]RLR[β3hK]QLA[β3hV]KKY[β3hL]NAI[β3hL]N (not fully specified (C-terminus); printed as HfDAxFTDNYtRLRkQLAvKKYlNAIlN) [LBT-V127], the “EC 50 vpac1 (Molar)” value was 0.0893 µM.

In the case of H[dF][β3hD]AVF[β3hT]DNY[β3hT]RLR[β3hK]QLA[β3hV]KKY[β3hL]NAI[β3hL]N (not fully specified (C-terminus); printed as HfdAVFtDNYtRLRkQLAvKKYlNAIlN) [LBT-V130], the “EC 50 vpac1 (Molar)” value is 0.912 µM.

For H[dF]DA[β3hV]FTD[β3hN]Y[β3hT]RLR[β3hK]QLA[β3hV]KKY[β3hL]NAI[β3hL]N (not fully specified (C-terminus); printed as HfDAvFTDnYtRLRkQLAvKKYlNAIlN) [LBT-V129], the “EC 50 vpac1 (Molar)” value was greater than 1 µM.

For HS[β3hD]AVF[β3hT]DNY[β3hT]RLR[β3hK]QLA[β3hV]KKY[β3hL]NAI[β3hL]N (not fully specified (C-terminus); printed as HSdAVFtDNYtRLRkQLAvKKYlNAIlN) [LBT-V107], the “EC 50 vpac1 (Molar)” value is greater than 1 µM.

With H[ACPC]DA[β3hV]FTDNY[β3hT]RLR[β3hK]QLA[β3hV]KKY[β3hL]NAI[β3hL]N (not fully specified (C-terminus); printed as HxDAvFTDNYtRLRkQLAvKKYlNAIlN) [LBT-V104], the “EC 50 vpac1 (Molar)” value stood at 0.00443 µM.

Consider H[ACPC]DAVFTDNY[β3hT]RLR[β3hK]QLA[β3hV]KKY[β3hL]NAI[β3hL]N (not fully specified (C-terminus); printed as HxDAVFTDNYtRLRkQLAvKKYlNAIlN) [LBT-V102], for which the “EC 50 vpac1 (Molar)” value worked out at 0.00566 µM.

As to H[β3hS]DA[β3hV]FTD[β3hN]Y[β3hT]RLR[β3hK]QLA[β3hV]KKY[β3hL]NAI[β3hL]N (not fully specified (C-terminus); printed as HsDAvFTDnYtRLRkQLAvKKYlNAIlN) [LBT-V106], the “EC 50 vpac1 (Molar)” value is 298 µM.

With H[ACPC]DA[ACPC]FTDNY[β3hT]RLR[β3hK]QLA[β3hV]KKY[β3hL]NAI[β3hL]N (not fully specified (C-terminus); printed as HxDAxFTDNYtRLRkQLAvKKYlNAIlN) [LBT-V103], the “EC 50 vpac1 (Molar)” value worked out at 0.000358 µM.

For H[dF]DAVFTDNY[β3hT]RLR[β3hK]QLA[β3hV]KKY[β3hL]NAI[β3hL]N (not fully specified (C-terminus); printed as HfDAVFTDNYtRLRkQLAvKKYlNAIlN) [LBT-V126], the “EC 50 vpac1 (Molar)” value worked out at 619 µM.

With H[β3hS]DA[β3hV]FTDNY[β3hT]RLR[β3hK]QLA[β3hV]KKY[β3hL]NAI[β3hL]N (not fully specified (C-terminus); printed as HsDAvFTDNYtRLRkQLAvKKYlNAIlN) [LBT-V105], the “EC 50 vpac1 (Molar)” value worked out at 0.0644 µM.

Take H[dF]DA[β3hV]FTDNY[β3hT]RLR[β3hK]QLA[β3hV]KKY[β3hL]NAI[β3hL]N (not fully specified (C-terminus); printed as HfDAvFTDNYtRLRkQLAvKKYlNAIlN) [LBT-V128]: the “EC 50 vpac1 (Molar)” value is 0.0712 µM.

Turning to HSDAVFTDNY[β3hT]RLR[β3hK]QLA[β3hV]KKY[β3hL]NAI[β3hL]N (not fully specified (C-terminus); printed as HSDAVFTDNYtRLRkQLAvKKYlNAIlN) [LBT-V101], the “EC 50 vpac1 (Molar)” value came out at 0.00217 µM.

A further assay concerns the target T2, VPAC1 receptor. As to the kind of experiment: cell-based or functional assay. The source holds these as a separate data set.
Regarding HSDAVFTDNY[β3hT]RLR[β3hK]QLA[β3hV]KKY[β3hL]NAI[β3hL]N (not fully specified (C-terminus); printed as HSDAVFTDNYtRLRkQLAvKKYlNAIlN) [LBT-V101], the “EC50 of ligand mediated receptor internalization (chemiluminescent signal, PathHunter eXpress CHO-K1 VIPR1 cells)” value was determined as 0.0102 µM.
